Laboratory results as given in the Human Domainome abundance scans (Beltran et al. 2025).
± gives the uncertainty stated by the source.

B1: Friend leukemia integration 1 transcription factor, residues 116 to 197; numbered along this chain, Q01543 (parent)
chain: NMTTNERRVIVPADPTLWTQEHVRQWLEWAIKEYSLMEIDTSFFQNMDGKELCKMNKEDFLRATTLYNTEVLLSHLSYLRES

Variants of: B1
Assay: abundance fitness (aPCA) (normalised: wild type 0, dead -1); higher = more abundant; growth selection in yeast, the domain comes from the species named
Details: Homo sapiens

| Variant | abundance fitness |
| --- | --- |
| NMTTNERRVIVPALPTLWTQEHVRQWLEWAIKEYSLMEIDTSFFQNMDGKELCKMNKEDFLRATTLYNTEVLLSHLSYLRES | -0.51 ± 0.091 |
| NMTTNERRVIVPACPTLWTQEHVRQWLEWAIKEYSLMEIDTSFFQNMDGKELCKMNKEDFLRATTLYNTEVLLSHLSYLRES | -0.164 ± 0.15 |
| NMTTNERRVIVPATPTLWTQEHVRQWLEWAIKEYSLMEIDTSFFQNMDGKELCKMNKEDFLRATTLYNTEVLLSHLSYLRES | -0.388 ± 0.12 |
| NMTTNERRVIVPAMPTLWTQEHVRQWLEWAIKEYSLMEIDTSFFQNMDGKELCKMNKEDFLRATTLYNTEVLLSHLSYLRES | -0.421 ± 0.14 |
| NMTTNERRVIVPARPTLWTQEHVRQWLEWAIKEYSLMEIDTSFFQNMDGKELCKMNKEDFLRATTLYNTEVLLSHLSYLRES | -0.701 ± 0.12 |
| NMTTNERRVIVPAEPTLWTQEHVRQWLEWAIKEYSLMEIDTSFFQNMDGKELCKMNKEDFLRATTLYNTEVLLSHLSYLRES | 0.096 ± 0.12 |
| NMTTNERRVIVPAPPTLWTQEHVRQWLEWAIKEYSLMEIDTSFFQNMDGKELCKMNKEDFLRATTLYNTEVLLSHLSYLRES | -0.415 ± 0.26 |
| NMTTNERRVIVPAKPTLWTQEHVRQWLEWAIKEYSLMEIDTSFFQNMDGKELCKMNKEDFLRATTLYNTEVLLSHLSYLRES | -0.564 ± 0.19 |
| NMTTNERRVIVPAWPTLWTQEHVRQWLEWAIKEYSLMEIDTSFFQNMDGKELCKMNKEDFLRATTLYNTEVLLSHLSYLRES | -0.354 ± 0.14 |
| NMTTNERRVIVPAYPTLWTQEHVRQWLEWAIKEYSLMEIDTSFFQNMDGKELCKMNKEDFLRATTLYNTEVLLSHLSYLRES | 0.011 ± 0.26 |
| NMTTNERRVIVPAIPTLWTQEHVRQWLEWAIKEYSLMEIDTSFFQNMDGKELCKMNKEDFLRATTLYNTEVLLSHLSYLRES | -0.467 ± 0.24 |
| NMTTNERRVIVPAFPTLWTQEHVRQWLEWAIKEYSLMEIDTSFFQNMDGKELCKMNKEDFLRATTLYNTEVLLSHLSYLRES | -0.517 ± 0.22 |
| NMTTNERRVIVPAVPTLWTQEHVRQWLEWAIKEYSLMEIDTSFFQNMDGKELCKMNKEDFLRATTLYNTEVLLSHLSYLRES | -0.353 ± 0.1 |
| NMTTNERRVIVPAAPTLWTQEHVRQWLEWAIKEYSLMEIDTSFFQNMDGKELCKMNKEDFLRATTLYNTEVLLSHLSYLRES | -0.237 ± 0.1 |
| NMTTNERRVIVPAQPTLWTQEHVRQWLEWAIKEYSLMEIDTSFFQNMDGKELCKMNKEDFLRATTLYNTEVLLSHLSYLRES | 0.155 ± 0.27 |
| NMTTNERRVIVPASPTLWTQEHVRQWLEWAIKEYSLMEIDTSFFQNMDGKELCKMNKEDFLRATTLYNTEVLLSHLSYLRES | -0.229 ± 0.17 |
| NMTTNERRVIVPANPTLWTQEHVRQWLEWAIKEYSLMEIDTSFFQNMDGKELCKMNKEDFLRATTLYNTEVLLSHLSYLRES | -0.063 ± 0.21 |

| Variant | abundance fitness |
| --- | --- |
| NMTTNERRVIVPADRTLWTQEHVRQWLEWAIKEYSLMEIDTSFFQNMDGKELCKMNKEDFLRATTLYNTEVLLSHLSYLRES | -0.92 ± 0.096 |
| NMTTNERRVIVPADVTLWTQEHVRQWLEWAIKEYSLMEIDTSFFQNMDGKELCKMNKEDFLRATTLYNTEVLLSHLSYLRES | -0.056 ± 0.048 |
| NMTTNERRVIVPADYTLWTQEHVRQWLEWAIKEYSLMEIDTSFFQNMDGKELCKMNKEDFLRATTLYNTEVLLSHLSYLRES | -0.512 ± 0.15 |
| NMTTNERRVIVPADHTLWTQEHVRQWLEWAIKEYSLMEIDTSFFQNMDGKELCKMNKEDFLRATTLYNTEVLLSHLSYLRES | -0.892 ± 0.28 |
| NMTTNERRVIVPADDTLWTQEHVRQWLEWAIKEYSLMEIDTSFFQNMDGKELCKMNKEDFLRATTLYNTEVLLSHLSYLRES | -0.489 ± 0.18 |
| NMTTNERRVIVPADFTLWTQEHVRQWLEWAIKEYSLMEIDTSFFQNMDGKELCKMNKEDFLRATTLYNTEVLLSHLSYLRES | -0.851 ± 0.18 |
| NMTTNERRVIVPADTTLWTQEHVRQWLEWAIKEYSLMEIDTSFFQNMDGKELCKMNKEDFLRATTLYNTEVLLSHLSYLRES | -0.42 ± 0.08 |
| NMTTNERRVIVPADCTLWTQEHVRQWLEWAIKEYSLMEIDTSFFQNMDGKELCKMNKEDFLRATTLYNTEVLLSHLSYLRES | -0.398 ± 0.076 |
| NMTTNERRVIVPADSTLWTQEHVRQWLEWAIKEYSLMEIDTSFFQNMDGKELCKMNKEDFLRATTLYNTEVLLSHLSYLRES | -0.565 ± 0.085 |
| NMTTNERRVIVPADWTLWTQEHVRQWLEWAIKEYSLMEIDTSFFQNMDGKELCKMNKEDFLRATTLYNTEVLLSHLSYLRES | -0.942 ± 0.16 |
| NMTTNERRVIVPADETLWTQEHVRQWLEWAIKEYSLMEIDTSFFQNMDGKELCKMNKEDFLRATTLYNTEVLLSHLSYLRES | -0.854 ± 0.13 |
| NMTTNERRVIVPADQTLWTQEHVRQWLEWAIKEYSLMEIDTSFFQNMDGKELCKMNKEDFLRATTLYNTEVLLSHLSYLRES | -0.543 ± 0.13 |
| NMTTNERRVIVPADKTLWTQEHVRQWLEWAIKEYSLMEIDTSFFQNMDGKELCKMNKEDFLRATTLYNTEVLLSHLSYLRES | -1.09 ± 0.31 |
| NMTTNERRVIVPADITLWTQEHVRQWLEWAIKEYSLMEIDTSFFQNMDGKELCKMNKEDFLRATTLYNTEVLLSHLSYLRES | -0.028 ± 0.085 |
| NMTTNERRVIVPADGTLWTQEHVRQWLEWAIKEYSLMEIDTSFFQNMDGKELCKMNKEDFLRATTLYNTEVLLSHLSYLRES | -1.07 ± 0.12 |
| NMTTNERRVIVPGDPTLWTQEHVRQWLEWAIKEYSLMEIDTSFFQNMDGKELCKMNKEDFLRATTLYNTEVLLSHLSYLRES | 0.123 ± 0.05 |
